From the RNAGym collection of RNA variant scans (doi:10.1101/gr.219683.116)

B1: mRNA-splicing (parent)
chain: AGUUGCUGCUGGGAGCUCCAGCACAGUGAAAUGGACAGAAGGGCAGAGCAA

Variants of: B1
Test: exon inclusion enrichment index; higher = more inclusion; WT1 exon 5 minigene, HEK293

Variant	exon inclusion enrichment index
G5U G8U C9U G15A	0.0439
G5A U7C G8C C9G U10C	1.58
C19U A20C	1.96
A37G G38U	0.0457
G5A C6G U7G C9A A39U	0.000789
G5A C6G U7G C9A C18G	0.00165
C6A U7C C9A U10C G46A A47U	2.94
G5C C6G U7C C9G	1.96
G5A U7C G8A U10C C16G U17G	0.238
G5C C6A U7C G8A U10A G34A	0.0333
G5C C6G U7C U10C G41A G42A	2.54
G5C C6G U7C U10C G41A G42C	3.88
C18A C19A	0.547
G5C C6G U7C U10C A25G	5.05
G5C C6A U7C G8A U10A G33U G34A	0.0098
G5C C6G U7C U10C A35U C36U	0.0671
G5C C6G U7C U10C C18G C19U	1.44
G5A U7C G8A C9U U10A	0.0302
G5A U7C G8A U10C G43C C44A	3.61
G5A U7C G8A U10C A29U A30U	0.907
G5A C6U U7A G8U C9A C16G U17C	0.00521
G5C C6U G8C C9U U10C C16U U17A	1.65
C36G A37C	0.127
G5A C6U U7A G8U C9A A14U G15C	0.00818

Variant	exon inclusion enrichment index
C6A U7A C9A U10A G15C C16G	0.812
G5A C6U U7A G8U C9A G15U C16G	0.0108
G5A C6U U7A G8U C9A C16A	0.0643
G5A C6G U7G C9A G38U A39G	0.00105
G5C C6G U7C U10C G15U	3.45
C6A U7A C9A U10A A39U A40U	0.184
C6A U7A C9A U10A A39U A40C	1.19
G5C C6G U7C U10C C16U	4.22
U7A G8A	1.49
G5C C6G U7C U10C G28U A29U	1.08
U7G C9A U10C	2
G5C C6U G8C C9U U10C A39U A40U	0.67
G5C C6G U7C U10C G34A A35U	1.96
G5C C6A U7G C9A	0.352
G5A U7C G8A U10C G26U U27C	3.63
C6A U7C C9A U10C A47C G48A	2.16
G5A C6U U7A G8U C9A A39G	0.00842
G5A C6G U7G C9A G34A	0.00215
G5C C6G U7C U10C A31G U32A	5.21
A20G G21U	2.37
G5U G8U C9U A37C G38U	0.0543
G5C C6G U7C U10C A23C C24G	5.29
G5A C6A U7G G8U C9A	0.0264
U3C U4G G5A C6U U7A G8U C9A	0.312

Variant	exon inclusion enrichment index
G5A U7C G8A U10C A14C G15A	0.731
G5U G8U C9U G46A A47G	0.0611
G5A C6U U7A G8U C9A G33C G34C	0.043
U4A G5C	0.183
G5A C6G U7G C9A C24A A25U	0.00166
G5C C6U G8C C9U U10C A37U G38A	0.713
G5C C6G U7C U10C A45G G46A	6.29
G5A C6G U7G C9A G42C G43U	0.00749
G5U G8U C9U G13U A14C	0.0727
G5U G8U C9U A30C	0.172
C6A U7A C9A U10A A47C G48C	0.797
C6A U7A C9A U10A A47C G48U	0.811
G5C C6U G8C C9U U10C C24G	2.4
C6A U7C C9A U10C A31C U32C	4.42
C22U A23U	1.19
G5A C6G U7G C9A G48C	0.00243
G46A A47U	0.185
C6A U7C C9A U10C A45C G46U	1.54
G5A C6G U7G C9A C24G A25U	0.00102
G5A C6U U7A G8U C9A A23G C24G	0.259
C22G A23C	1.36
G5C C6A U7C G8A U10A G21C	0.0715
C6A U7A C9A U10A C36U A37U	0.411
G5A C6U U7A G8U C9A C18A C19U	0.00112

Variant	exon inclusion enrichment index
G5C C6U G8C C9U U10C G11U	1
A23U C24U	0.078
G5A C6U U7A G8U C9A G38A	0.0251
A20C G21U	1.49
G5A C6U U7A G8U C9A C24U A25G	0.165
G5C C6A U7C G8A U10A A25G	0.601
G5C C6A U7C G8A U10A A40G G41A	0.0264
G5C C6A U7C G8A U10A A39U A40C	0.195
G2C U3G G5C C6A U7C G8A U10A	0.148
G5A C6U U7A G8U C9A A37G G38A	0.0869
G5A C6G U7G C9A C36U A37U	0.00084
G5A C6G U7G C9A C36U A37C	0.000996
C44U	0.0165
G5A U7C G8A U10C G21A C22A	1.09
G5C C6U G8C C9U U10C A25G G26C	3.56
A29U A30U	0.0389
G5A C6U U7A G8U C9A C24G	0.0851
C6A U7C G8C C9A U10C	2.29
G5U G8U C9U U17G	0.13
G5A C6G U7G C9A C22G	0.00114
G5A U7C G8A U10C A37C G38C	2.35
G5A U7C G8A U10C A25G G26A	4.73
A40G	0.0976
G5C C6U G8C C9U U10C G12C G13A	0.931

Variant	exon inclusion enrichment index
G5A C6U U7A G8U C9U U10G	0.0345
G5A C6U U7A G8U C9A G28A A29G	0.00353
C6A U7C C9A U10C G34C	1.79
G5A C6G G8A U10C	0.184
U17C C18G	0.369
U4C G5C U7C G8A U10C	1.51
C6A U7C C9A U10C G21U	3.09
G5A C6U U7A G8U C9A U27G G28C	0.0308
G5C C6G U7C U10C A47U G48A	3.03
G5C C6U G8C C9U U10C G41C	3.06
G5A C6U G8A U10C	0.819
G5U G8U C9U A23C C24G	0.632
C6A U7C U10C	3.14
C6A U7A C9A U10A A37U	0.746
G5C C6G U7C U10C C24G A25U	3.91
G5A C6U U7A G8U C9A G48A	0.185
C6A U7G C9A U10A	0.108
G5C C6A U7C G8A U10A G15C C16A	0.0594
G5C C6A U7C G8C C9G U10A	2.51
U4G G5C	0.226
U4G G5U	0.105
G5U G8U C9U A14C G15U	0.0169
A31G	0.255
A31U	0.159

Variant	exon inclusion enrichment index
G5C C6G U7C U10C A30U	3.07
G5C C6G U7C U10C A30C	3.57
C6A U7C C9A U10C G15A C16A	2.34
C6A U7C C9A U10C C22G A23U	0.87
G5A C6U U7A G8U C9A C36U A37U	0.0384
G5A C6U U7A G8U C9A C36U A37C	0.0296
C6A U7C C9A U10C A20C G21C	2.31
G8A	1.09
G5A U7C G8A U10C C36U A37C	1.63
C6A U7C C9A U10C A35C C36G	2.56
C6A U7C C9A U10C G42A	4.25
G15C C16U	0.0653
G5A C6G U7G C9A U10G G11U	0.00152
G5A U7C G8A U10C A29G A30C	1.32
C6A U7A C9A U10A C22G	0.964
U3G U4A G5A U7C G8A U10C	2.25
G5C C6U G8C C9U U10C C36A A37C	2.33
G13U	0.0154
G13A	0.135
G5C C6G U7C U10C G12A	2.53
G5A U7C G8A U10C G41A	1.44
G5A U7C G8A U10C G41C	3.34
G5C C6A U7C G8A U10C G11A	1.06
G5C C6U G8C C9G U10G	3.42

Variant	exon inclusion enrichment index
G42A	0.734
G5A U7C G8A U10C C18G C19A	2.92
G5A U7C G8A U10C C18G C19U	0.528
G28C A29C	0.118
G5C C6U G8C C9U U10G G11U	1.56
G5C C6U G8C C9U U10C G38U	0.577
C6A U7A C9A U10A G38A	0.314
G5A U7C G8A U10C G13A	2.41
G5C C6G U7C U10C A30G A31U	1.7
G5C C6G U7C U10C A30G A31G	1.71
G5A U7C G8A U10C U32C	3.88
G46U A47G	0.116
C6A U7A C9A U10A G13U A14U	0.534
G5A U7C G8A U10C G13C A14C	1.19
G5C C6A U7C G8A U10A G12U G13C	0.0217
G5C C6U G8C C9U U10C A45U G46C	1.3
G5A U7C G8A U10C A30U A31G	2.36
G5A C6G U7G C9A U32A G33U	0.00206
G5C C6A U7C G8A U10A G15U C16U	0.0659
U3C U4C G5U G8U C9U	0.335
C6A U7A C9A U10A G46A	0.993
G5C C6U G8C C9U U10C U32G G33A	0.468
G42A G43U	1.63
